Patent US20060246084A1

What was measured:
[1] = molecular target: human TLR-2 receptor on CD14-positive human thymic epithelial VTEC2.HS cells (human) (UniProt O60603); test: 125I radioligand on VTEC2.HS cells; binding not detectable
[2] = molecular target: IFN-γ C-terminal peptide … (human)
[3] = molecular target: human TLR-2 receptor on CD14-positive human thymic epithelial VTEC2.HS cells (human) (UniProt O60603); test: Scatchard analysis, 125I radioligand on VTEC2.HS cells
[4] = molecular target: IFN-γ receptor on human cells (no IFN-γ added) (human) (UniProt P15260); test: 125I-LcrV68-326 alone on human monocytes
Sequence of IFN-γ receptor on human cells (no IFN-γ added) (human) (P15260 18-489): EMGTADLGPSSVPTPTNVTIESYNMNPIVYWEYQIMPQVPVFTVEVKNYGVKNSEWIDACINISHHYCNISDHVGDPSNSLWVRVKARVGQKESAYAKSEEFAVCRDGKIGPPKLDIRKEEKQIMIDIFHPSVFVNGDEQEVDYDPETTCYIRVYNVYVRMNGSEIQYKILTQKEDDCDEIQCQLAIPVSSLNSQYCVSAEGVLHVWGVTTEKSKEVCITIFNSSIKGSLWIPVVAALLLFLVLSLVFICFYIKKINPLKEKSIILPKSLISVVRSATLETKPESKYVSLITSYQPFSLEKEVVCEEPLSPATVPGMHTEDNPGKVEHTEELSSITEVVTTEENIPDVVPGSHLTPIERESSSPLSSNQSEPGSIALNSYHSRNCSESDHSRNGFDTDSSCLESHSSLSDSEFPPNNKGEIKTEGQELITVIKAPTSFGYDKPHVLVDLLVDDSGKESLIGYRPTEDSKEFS

[5] = molecular target: IFN-γ receptor on human cells (no IFN-γ added) (human) (UniProt P15260); test: 125I-LcrV68-326 alone on human neutrophils
[6] = molecular target: IFN-γ receptor on human cells (no IFN-γ added) (human) (UniProt P15260); test: 125I-LcrV68-326 alone on human thymocytes
[7] = molecular target: IFN-γ receptor on human cells (no IFN-γ added) (human) (UniProt P15260); test: 125I-LcrV68-326 alone on U937 cells
[8] = molecular target: receptors of human cells in the presence of IFN-α2 (human) (UniProt P01563); test: 125I-LcrV68-326 plus unlabelled IFN-α2 on human thymocytes
[9] = molecular target: receptors of human cells in the presence of IFN-α2 (human) (UniProt P01563); test: 125I-LcrV68-326 plus unlabelled IFN-α2 on U937 cells
[10] = molecular target: synthetic fragment of the mouse TLR-2 extracellular domain (mouse)
[11] = molecular target: receptors of human cells in the presence of IFN-α2 (human) (UniProt P01563); test: 125I-LcrV68-326 plus unlabelled IFN-α2 on human neutrophils
[12] = molecular target: receptors of human cells in the presence of IFN-α2 (human) (UniProt P01563); test: 125I-LcrV68-326 plus unlabelled IFN-α2 on human monocytes

Sequence of human TLR-2 receptor on CD14-positive human thymic epithelial VTEC2.HS cells (human) (O60603 21-784): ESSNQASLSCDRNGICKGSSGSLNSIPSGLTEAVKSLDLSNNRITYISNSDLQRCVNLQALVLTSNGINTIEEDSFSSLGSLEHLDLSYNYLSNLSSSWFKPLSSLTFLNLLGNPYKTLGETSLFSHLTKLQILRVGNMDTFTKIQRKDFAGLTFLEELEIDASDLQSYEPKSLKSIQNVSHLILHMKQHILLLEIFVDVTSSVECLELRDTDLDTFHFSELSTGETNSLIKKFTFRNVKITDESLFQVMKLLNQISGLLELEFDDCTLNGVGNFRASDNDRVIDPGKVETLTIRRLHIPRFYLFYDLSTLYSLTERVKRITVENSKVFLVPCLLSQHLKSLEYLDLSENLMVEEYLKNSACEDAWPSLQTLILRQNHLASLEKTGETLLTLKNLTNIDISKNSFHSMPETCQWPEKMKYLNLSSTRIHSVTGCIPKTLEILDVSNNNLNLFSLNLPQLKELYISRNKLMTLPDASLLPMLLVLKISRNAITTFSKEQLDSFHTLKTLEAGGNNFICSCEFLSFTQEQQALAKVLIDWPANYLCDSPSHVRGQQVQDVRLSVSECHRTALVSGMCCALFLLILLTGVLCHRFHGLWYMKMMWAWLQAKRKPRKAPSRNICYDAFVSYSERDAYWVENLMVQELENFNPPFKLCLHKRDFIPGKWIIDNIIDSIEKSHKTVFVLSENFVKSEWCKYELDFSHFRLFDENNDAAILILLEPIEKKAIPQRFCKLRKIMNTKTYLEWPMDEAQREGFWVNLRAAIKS

Question: Which Kd [1] does the source give for “LcrV (V antigen) of Yersinia pestis KIM, recombinant, freed of hexahistidine (from UniProt P0C7U7 1-326) (other; other documents disagree on this pair)” here?
Answer: 1 mM

Question: “LcrV (V antigen) of Yersinia pestis KIM, recombinant, freed of hexahistidine (from UniProt P0C7U7 1-326)” was tested. Which Kd [2] did it give?
Answer: 6 pM

Question: How did the Kd [3] turn out when “LcrV68-326, N-terminally truncated LcrV (from UniProt P0C7U7 68-326) (other; other documents disagree on this pair)” was run?
Answer: 0.8 nM

Question: And the Kd [4]?
Answer: 1 mM

Question: And the Kd [5]?
Answer: 1 mM

Question: What about the Kd [6] of the same substance?
Answer: 1 mM

Question: And the Kd [7]?
Answer: 1 mM

Question: For “LcrV68-326, N-terminally truncated LcrV (from UniProt P0C7U7 68-326)”, which Kd [8] is on record?
Answer: 1 mM

Question: What about the Kd [9] of the same substance?
Answer: 1 mM

Question: And the Kd [10]?
Answer: 0.55 nM

Question: What about the Kd [11] of the same substance?
Answer: 1 mM

Question: And the Kd [12]?
Answer: 1 mM
